Test results as given in publication PMC6005420, “A low-complexity region in the YTH domain protein Mmi1 enhances RNA binding”.

How the values were obtained:
[1] = tested on: Mmi1 YTH-ΔC (Schizosaccharomyces pombe); test: SwitchSENSE; conditions: 40 mM NaCl; RNA-DNA chimera: 15-mer DSRshort followed by 42 deoxyribonucleotides; FP: 10 mM TAPS pH 8.2, 2 mM PIPES, 50 or 150 mM NaCl, 0.5 mM MgAc, 0.1 mM TCEP, 0.01% Brij-35, room temperature, 0.1 nM RNA; EMSA: 20 mM HEPES pH 7.5, 100 mM …
[2] = tested on: Mmi1 YTH-ΔNΔC (Schizosaccharomyces pombe); test: SwitchSENSE; conditions: 40 mM NaCl; RNA-DNA chimera: 15-mer DSRshort followed by 42 deoxyribonucleotides; FP: 10 mM TAPS pH 8.2, 2 mM PIPES, 50 or 150 mM NaCl, 0.5 mM MgAc, 0.1 mM TCEP, 0.01% Brij-35, room temperature, 0.1 nM RNA; EMSA: 20 mM HEPES pH 7.5, 100 mM …
[3] = target: T1, Mmi1 USR-YTH (Schizosaccharomyces pombe, UniProt O74958 282-488); test: SwitchSENSE; conditions: 40 mM NaCl; RNA-DNA chimera: 15-mer DSRshort followed by 42 deoxyribonucleotides; FP: 10 mM TAPS pH 8.2, 2 mM PIPES, 50 or 150 mM NaCl, 0.5 mM MgAc, 0.1 mM TCEP, 0.01% Brij-35, room temperature, 0.1 nM RNA; EMSA: 20 mM HEPES pH 7.5, 100 mM …
T1 sequence: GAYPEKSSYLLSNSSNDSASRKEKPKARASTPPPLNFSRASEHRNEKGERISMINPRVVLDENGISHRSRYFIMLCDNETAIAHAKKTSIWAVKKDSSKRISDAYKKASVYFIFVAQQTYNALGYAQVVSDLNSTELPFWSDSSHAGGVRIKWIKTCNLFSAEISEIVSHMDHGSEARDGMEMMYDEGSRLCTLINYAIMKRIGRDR

[4] = target: T2, Mmi1 YTH (Schizosaccharomyces pombe, UniProt O74958 327-488); test: SwitchSENSE; conditions: 40 mM NaCl; RNA-DNA chimera: 15-mer DSRshort followed by 42 deoxyribonucleotides; FP: 10 mM TAPS pH 8.2, 2 mM PIPES, 50 or 150 mM NaCl, 0.5 mM MgAc, 0.1 mM TCEP, 0.01% Brij-35, room temperature, 0.1 nM RNA; EMSA: 20 mM HEPES pH 7.5, 100 mM …
T2 sequence: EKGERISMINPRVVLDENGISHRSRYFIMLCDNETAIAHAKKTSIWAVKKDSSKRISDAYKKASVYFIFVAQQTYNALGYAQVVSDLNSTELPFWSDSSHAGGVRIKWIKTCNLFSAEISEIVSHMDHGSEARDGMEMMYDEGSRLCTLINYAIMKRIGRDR

[5] = tested on: Mmi1 YTH-ΔN (Schizosaccharomyces pombe); test: SwitchSENSE; conditions: 40 mM NaCl; RNA-DNA chimera: 15-mer DSRshort followed by 42 deoxyribonucleotides; FP: 10 mM TAPS pH 8.2, 2 mM PIPES, 50 or 150 mM NaCl, 0.5 mM MgAc, 0.1 mM TCEP, 0.01% Brij-35, room temperature, 0.1 nM RNA; EMSA: 20 mM HEPES pH 7.5, 100 mM …
[6] = target: T1, Mmi1 USR-YTH; test: fluorescence polarization; 150 mM NaCl; FP: 10 mM TAPS pH 8.2, 2 mM PIPES, 50 or 150 mM NaCl, 0.5 mM MgAc, 0.1 mM TCEP, 0.01% Brij-35, room temperature, 0.1 nM RNA; EMSA: 20 mM HEPES pH 7.5, 100 mM NaCl (plus 30 mM from protein buffer), 1 mM MgAc, 0.1 mM TCEP, 5% glycerol, 50 nM RNA, 15 min; SwitchSENSE: 40 mM NaCl; conditions: protein: recombinant; tags: N-terminal His6, 3C-cleaved; label: 3'-6-carboxyfluorescein
[7] = target: T2, Mmi1 YTH; test: as above; conditions: protein: recombinant; tags: N-terminal His6, 3C-cleaved; label: 3'-6-carboxyfluorescein
[8] = target: T1, Mmi1 USR-YTH; test: fluorescence polarization; 50 mM NaCl; FP: 10 mM TAPS pH 8.2, 2 mM PIPES, 50 or 150 mM NaCl, 0.5 mM MgAc, 0.1 mM TCEP, 0.01% Brij-35, room temperature, 0.1 nM RNA; EMSA: 20 mM HEPES pH 7.5, 100 mM NaCl (plus 30 mM from protein buffer), 1 mM MgAc, 0.1 mM TCEP, 5% glycerol, 50 nM RNA, 15 min; SwitchSENSE: 40 mM NaCl; conditions: protein: recombinant; tags: N-terminal His6, 3C-cleaved; label: 3'-6-carboxyfluorescein
[9] = target: T2, Mmi1 YTH; test: as above; conditions: protein: recombinant; tags: N-terminal His6, 3C-cleaved; label: 3'-6-carboxyfluorescein
[10] = target: T3, Mmi1(301-488) (Schizosaccharomyces pombe, UniProt O74958 301-488); test: X-ray crystallography; FP: 10 mM TAPS pH 8.2, 2 mM PIPES, 50 or 150 mM NaCl, 0.5 mM MgAc, 0.1 mM TCEP, 0.01% Brij-35, room temperature, 0.1 nM RNA; EMSA: 20 mM HEPES pH 7.5, 100 mM NaCl (plus 30 mM from protein buffer), 1 mM MgAc, 0.1 mM TCEP, 5% glycerol, 50 nM RNA, 15 min; SwitchSENSE: 40 mM NaCl; conditions: protein: recombinant; tags: N-terminal His6, 3C-cleaved
T3 sequence: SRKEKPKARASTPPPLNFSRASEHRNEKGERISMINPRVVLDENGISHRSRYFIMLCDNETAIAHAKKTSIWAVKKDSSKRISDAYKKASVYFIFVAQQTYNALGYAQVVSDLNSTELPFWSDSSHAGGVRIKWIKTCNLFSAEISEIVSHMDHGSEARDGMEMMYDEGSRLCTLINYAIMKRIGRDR

[11] = target: T1, Mmi1 USR-YTH; test: EMSA; FP: 10 mM TAPS pH 8.2, 2 mM PIPES, 50 or 150 mM NaCl, 0.5 mM MgAc, 0.1 mM TCEP, 0.01% Brij-35, room temperature, 0.1 nM RNA; EMSA: 20 mM HEPES pH 7.5, 100 mM NaCl (plus 30 mM from protein buffer), 1 mM MgAc, 0.1 mM TCEP, 5% glycerol, 50 nM RNA, 15 min; SwitchSENSE: 40 mM NaCl; conditions: protein: recombinant; tags: N-terminal His6, 3C-cleaved; label: 3'-fluorescein
[12] = target: T1, Mmi1 USR-YTH; test: NMR; FP: 10 mM TAPS pH 8.2, 2 mM PIPES, 50 or 150 mM NaCl, 0.5 mM MgAc, 0.1 mM TCEP, 0.01% Brij-35, room temperature, 0.1 nM RNA; EMSA: 20 mM HEPES pH 7.5, 100 mM NaCl (plus 30 mM from protein buffer), 1 mM MgAc, 0.1 mM TCEP, 5% glycerol, 50 nM RNA, 15 min; SwitchSENSE: 40 mM NaCl; conditions: protein: recombinant; tags: N-terminal His6, 3C-cleaved

Molecule: DSRshort-DNA chimera for SwitchSENSE
- Kd [1]: 160 nM
- Kd [2]: 51000 nM
- Kd [3]: 0.09 nM
- Kd [4]: 16 nM
- Kd [5]: 15000 nM

Molecule: UCUUAAACCAGUCAC (ssRNA) [DSRshort (15-mer)]
- Kd [6]: 6.1 ± 0.7 nM
- Kd [7]: 154 ± 85 nM
- Kd [8]: 0.14 ± 0.01 nM
- Kd [9]: 42 ± 18 nM

Molecule: CUUUAAACCUA (ssRNA) [11-mer DSR RNA]
- binding result [10]: binds

Molecule: GUGUCUCUUUAAACCUAAAAAGCAC (ssRNA) [rec8DSR]
- binding result [11]: binds

Molecule: UUAAACC (ssRNA) [7-mer DSR RNA]
- binding result [10]: binds
- binding result [12]: binds
